Results taken from paper PMC9890132 (Molecular Cancer Therapeutics, 2022).

Legend:
[1] = molecular target: cynomolgus monkey FolRα overexpressed on CHO cells (Macaca fascicularis, UniProt A0A2K5U044); test: flow cytometry on cells
[2] = molecular target: Recombinantly-expressed FolRα extracellular domain (Acro Biosystems) (Homo sapiens, UniProt P15328); test: SPR

B1: anti-FolRα antibody SP8166 (antibody, V domains shown)
VH: EVQLVESGGGLVQPGGSLRLSCAASGFNIRTQSIHWVRQAPGKGLEWIGDIFPIDGITDYADSVKGRFTISADTSKNTAYLQMNSLRAEDTAVYYCARGSWSWPSGMDYYLDYWGQGTLVTVSS
VL: not shown
Question: What does the source list for B1?
Answer: binding result [1]: binds; Kd [2]: 2.3 nM
